Tested on: K4 kissing-loop RNA reporter
Assay: apparent KD of K4 kissing-loop reporter; higher = weaker reporter binding
Conditions: Eterna round: R107; input ligand: none
Method: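 RNA-MaP round R107: designed RNA switches with theophylline, tryptophan, arginine or FMN aptamers are transcribed on-chip within common flanks. They are titrated with a labelled K4 kissing-loop RNA reporter in RNA-MaP buffer (100 mM Tris pH 7.5, 80 mM KCl, 4 mM MgCl2), without ligand or with the indicated ligand. Median apparent KD per design.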
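Note: bound reporter read as fluorescence of individual clusters on recovered sequencing chips by microscopy, with normalized cluster intensities fitted with a binding model.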

“GCCGUACGCAUGGAUACCAGUCUUAGAGUGAUGUUCUAUACGAUUGCGCCUGGAUCAAUGGACCCUUGGCAGCCAUGCGUACGGC” was tested. Which “apparent KD of K4 kissing-loop reporter” value did it give?
Its value is 123 nM.

For “UGUUUUUACUGAAGGAGCGGCAAUUGAUACGUAGAUAUAGUGAUGUUAUAUAAGAUAGAGAGCCAGGUAGGUCGCAGAGUUUUUC [ExArgB.Z]”, which “apparent KD of K4 kissing-loop reporter” value is on record?
The value was 161 nM.

Which “apparent KD of K4 kissing-loop reporter” value does the source give for “UGAUUGGCGAAAGUAGUGAUGUUACGAACAUAGGAUAUUAGAGGAAUAAGAAGGAUGAAUGAGAAAGGAAUAAAUUGUUGGUUGG [#08 K4 FMN A Same State]” here?
Its value is 165 nM.

“ACACUUUACGUAGGAUAUGCGACGAGUGAUGUUCGUCAGGCGGCCUUAGAUUAAACAAGCCGCCUAGCAGAAGGACGGGCAGUGU [Qumatiri]” was tested. Which “apparent KD of K4 kissing-loop reporter” value did it give?
Its value is 201 nM.

With “UGGAGUUGACGAAAAGUCAACUCCCGAGAAGGAGCGGACGAAAGUCCAGGUAGGUCGCUCACUACCAGUGAUGUUGGUACUAAAA” as the sequence, how does the “apparent KD of K4 kissing-loop reporter” value read?
Its value is 129 nM.

“UAUACUAGACAAGAGAGAAUUCUCUCAAGAGAGGAUAUCCGAAUUCGGAGAAGGCUCUCUCAGUGAUGUUGGGAAUAGUCUAGAA [AK6 SS FMN A]” was tested. Which “apparent KD of K4 kissing-loop reporter” value did it give?
Its value is 188 nM.

Which “apparent KD of K4 kissing-loop reporter” value does the source give for “GUAGGAUGGUGCGAUACCAGACCUGCAGUGAUGUUGCGCCAUAGUGAGUGAUGUUCACCGGUCCCUUGGCAGCGCGUCCAUAAAG [Same State Theophylline B GF 17]” here?
Its value is 1250 nM.

“GGCAUGCAUGGAAACAUGCAUGCCAUGCCUCGAGGACCGGUACGGCCGCCACUCGUUAAAAGAAAUGCCAGUGAUGUUGGCCGAA” was tested. Which “apparent KD of K4 kissing-loop reporter” value did it give?
The value was 528 nM.

Which “apparent KD of K4 kissing-loop reporter” value does the source give for “UUUAAACAUAGUGAUGUUAUGUAACAAUGACGAGGACCGGUACGGCCGCCACUCGAGAGAGAUGAUGGUAAAAUAAAUAAUUUUC [#10 K4 Tryptophan A Same State]” here?
Its value is 107 nM.

Which “apparent KD of K4 kissing-loop reporter” value does the source give for “GGUCCGGGCUCGGCCGCCACUCCCUCCUGCCGGAAGGUGGGAUACCGAGUGAUGUUCGGUUGGAGGAGGACCGGGAGCCCGGACC [#2 Exclusion - Tryptophan B Attempt #13 (HarryS)]” here?
The value was 123 nM.

For “CCGUAGCGAUCGGCCGCCACUCAAGAUCGCCAACUAUCACACGGUUCUCCCGAGUGAUGUUCUAGGAGGACCGGGAUUGUUGCUC [theeternabot_exclusion_KL_Trp_B_13]”, which “apparent KD of K4 kissing-loop reporter” value is on record?
Its value is 378 nM.

How did the “apparent KD of K4 kissing-loop reporter” value turn out when “CAUACGCAUGGAGGAUAUGGGAUUACUCAUAUUACCCUGUAACAGGUAUCUCAGUGAUGUUGAGACUCAGAAGGCCAUGUGUAUG [Ex FMN B 23]” was run?
The value was 348 nM.

How did the “apparent KD of K4 kissing-loop reporter” value turn out when “UUAGGAGUGGGAGGAUAUCCUAAUGUGGGUGAUGUUAGUGAUGUUGAAAGUGUAGUGAUGUUGUGCGGAGAAGGUCCAGUGUUGA [BDazzled - #11 - Exc. FMN B]” was run?
Its value is 210 nM.

“AAACAUUGGUCGGAUACCAGCUUGAUCGGAAAACGAUCUGCUGGAGUGAUGUUCCAAUAAAGCCCUUGGCAGCCGACCGAUGAAA [MAT - Same State Theophlline B - Mod of Eli - D14]” was tested. Which “apparent KD of K4 kissing-loop reporter” value did it give?
Its value is 1070 nM.

Which “apparent KD of K4 kissing-loop reporter” value does the source give for “UGUAUGUGAUUUGAUACCAGACCAGCUGGAGGAAUCUGAGUGAUGUUCAGGUAGGUUUGGGUCCCUUGGCAGCAAAUCGCAUACU [KL-SSTheoB17]” here?
Its value is 236 nM.

For “CCAUUCUUUUACGAUACCAGUUUAAUAUAUUUAUUCAUAACCCUUGCCGAGUGAUGUUCGGACCCUUGGCAGCGUUUGCGAGAGG [lliltkmullin]”, which “apparent KD of K4 kissing-loop reporter” value is on record?
Its value is 392 nM.

Same assay, conditions: Eterna round: R107; input ligand: theophylline 20 uM

“GUCUCAAAAGAGGCAAGCACUCACGAGGACAAGGAUAUCAUAUCAAUGAGAAGGUGUCCUCGUCCUUAGUGAUGUUAAGGAGUGC [Omei KL FMN A SS E v3]” was tested. Which “apparent KD of K4 kissing-loop reporter” value did it give?
The value was 196 nM.

How did the “apparent KD of K4 kissing-loop reporter” value turn out when “GGUUUAUAGGAGGAUACCAGUACGGAUAAAGUACGUUAAUAGUAGAGUGAUGUUCUAAAGUACCCUUGGCAGCUUAGAGUAAGUU [ExTheophylB.K]” was run?
Its value is 117 nM.

“UGUAUAUGAUGUGAUACCAGUGAAGAGCCAGUGAUGUUGGUAGAACUGGUAUAUAAAUAACACCCUUGGCAGCACAAUCACGUAC [whbob_Ex_Theo_B_sa98]” was tested. Which “apparent KD of K4 kissing-loop reporter” value did it give?
The value was 265 nM.

Which “apparent KD of K4 kissing-loop reporter” value does the source give for “CGUUUAUAGCAGGAUACCAGUACCCAUAAAGUACGUUAAUAGUAGAGUGAUGUUCUGAAGUACCCUUGGCAGCUUCCGGUAAGUG [#25 K4 Theophylline B Exclusion]” here?
Its value is 298 nM.

Which “apparent KD of K4 kissing-loop reporter” value does the source give for “AUGCGCGUGCGAUGUAAAUCGCACGCGCAUCGAGGACCGGUACGGCCGCCACUCGCUCGCGCCGAGUGAUGUUCGGCCGGCGAAC [#2 Same State - Tryptophan A Attempt #5 (HarryS)]” here?
Its value is 454 nM.

Which “apparent KD of K4 kissing-loop reporter” value does the source give for “UAUUAAUUGUCAGGAUAUCGUAUUCGAGUGAUGUUCGUAUAUCGACGAUAGUCGAUAUUAUUUAUACGAGAAGGGACAUUAUUUA [JR_SSFMNB_Sub005]” here?
Its value is 274 nM.

How did the “apparent KD of K4 kissing-loop reporter” value turn out when “UUAUUAAUAACAGAUACCAGUCCAGAAUGAAAACUAUAGUGAUGUUAUAAUAAAGGGAAGGACCCUUGGCAGCUGUAAUAUAUUU [AstrosSSTheB#2]” was run?
The value was 452 nM.

“UGUCAUUGGUCGGCCGCCACUUCAAGGUCAAAGACCAAAGAGUGAUGUUCUUAGACGAAAGUCAGAAGGACCGGGACCGAUGACU [TrypBS 9 #SwitchBubble #K4Middle]” was tested. Which “apparent KD of K4 kissing-loop reporter” value did it give?
Its value is 245 nM.

“GAGGUACAGGCGGCCGCCACUAGUGAUGUUAGUGAUAGAAGAUAUAGUAAAUAUCGGCAUGUAGAUAGGACCGGGCCUGGUGGAG [vvgtcmullin]” was tested. Which “apparent KD of K4 kissing-loop reporter” value did it give?
The value was 327 nM.

How did the “apparent KD of K4 kissing-loop reporter” value turn out when “CCUAUCUCAUACGAUACCAGUCUACGAUAUUUUAUCGUUGCCAACACCGAGUGAUGUUCGGACCCUUGGCAGCGUAUGGGAUAGG [#03 K4 Theophylline B Exclusion]” was run?
Its value is 138 nM.

“UAAGCUCUGACGGCCGCCACUGCACGUGAUCCAGUAGUGGCUAACAUGAGUGAUGUUCAUGUAAGCAGGACCGGGUCAGAGCUAA [KL-XTryp-B13 #analogue]” was tested. Which “apparent KD of K4 kissing-loop reporter” value did it give?
Its value is 81.7 nM.

Which “apparent KD of K4 kissing-loop reporter” value does the source give for “GUCUCAAAAGAGGCAAGCACUCACGAGGACAAGGAUAUCAUCUCAAUGAGAAGGUGUCCUCGUCCCUAGUGAUGUUAGGGAGUGC [Omei KL FMN A SS E v2]” here?
The value was 478 nM.

“GCGGGCCCGGGAGGAUAUGAGUCGAGUGAUGUUCGGCGGUCCAUGCCGUUGCGGCGUUAAGCCCUUUUAGAAGGCCCGGGCCCGC [#2 Exclusion - FMN B Attempt #2 (HarryS)]” was tested. Which “apparent KD of K4 kissing-loop reporter” value did it give?
The value was 138 nM.

“UCCACGCUUAGAGGAUAUCGGAUUAGAGUGAUGUUCUAAAGAAGCCCAGUGAUGUUGGAUGGUAUACGAGAAGGCUGAGGCGUGG [Same State FMN B GF 3]” was tested. Which “apparent KD of K4 kissing-loop reporter” value did it give?
Its value is 588 nM.

“UCAUCGGUACAAGGAUAUUAGAGGUAGUGAUGUUACCCGUUUUUUAUACAUCGAUGUCACCCUAACUAAGAAGGUGUUCAAACUU [theeternabot_exclusion_KL_FMN_B_7]” was tested. Which “apparent KD of K4 kissing-loop reporter” value did it give?
Its value is 54 nM.

With “UGACGUUUGGGAAGGAGCGGAAUGUAAUACGGAGCGCGUGGAGAUGCAGUGAUGUUGCAGAUCCAGGUAGGUCGCCCAAGGGACG [Zati]” as the sequence, how does the “apparent KD of K4 kissing-loop reporter” value read?
Its value is 79.3 nM.

With “GCCGUACGCAUGGAUACCAGUCUUAGAGUGAUGUUCUAUACGAUUGCGCCUGGAUCAAUGGACCCUUGGCAGCCAUGCGUACGGC” as the sequence, how does the “apparent KD of K4 kissing-loop reporter” value read?
Its value is 114 nM.

“UGUUUUUACUGAAGGAGCGGCAAUUGAUACGUAGAUAUAGUGAUGUUAUAUAAGAUAGAGAGCCAGGUAGGUCGCAGAGUUUUUC [ExArgB.Z]” was tested. Which “apparent KD of K4 kissing-loop reporter” value did it give?
The value was 179 nM.

How did the “apparent KD of K4 kissing-loop reporter” value turn out when “UGAUUGGCGAAAGUAGUGAUGUUACGAACAUAGGAUAUUAGAGGAAUAAGAAGGAUGAAUGAGAAAGGAAUAAAUUGUUGGUUGG [#08 K4 FMN A Same State]” was run?
Its value is 193 nM.

How did the “apparent KD of K4 kissing-loop reporter” value turn out when “ACACUUUACGUAGGAUAUGCGACGAGUGAUGUUCGUCAGGCGGCCUUAGAUUAAACAAGCCGCCUAGCAGAAGGACGGGCAGUGU [Qumatiri]” was run?
Its value is 154 nM.

With “UGGAGUUGACGAAAAGUCAACUCCCGAGAAGGAGCGGACGAAAGUCCAGGUAGGUCGCUCACUACCAGUGAUGUUGGUACUAAAA” as the sequence, how does the “apparent KD of K4 kissing-loop reporter” value read?
The value was 135 nM.

Which “apparent KD of K4 kissing-loop reporter” value does the source give for “UAUACUAGACAAGAGAGAAUUCUCUCAAGAGAGGAUAUCCGAAUUCGGAGAAGGCUCUCUCAGUGAUGUUGGGAAUAGUCUAGAA [AK6 SS FMN A]” here?
The value was 229 nM.

How did the “apparent KD of K4 kissing-loop reporter” value turn out when “GUAGGAUGGUGCGAUACCAGACCUGCAGUGAUGUUGCGCCAUAGUGAGUGAUGUUCACCGGUCCCUUGGCAGCGCGUCCAUAAAG [Same State Theophylline B GF 17]” was run?
The value was 1160 nM.

“GGCAUGCAUGGAAACAUGCAUGCCAUGCCUCGAGGACCGGUACGGCCGCCACUCGUUAAAAGAAAUGCCAGUGAUGUUGGCCGAA” was tested. Which “apparent KD of K4 kissing-loop reporter” value did it give?
Its value is 500 nM.

Source: the supplement of paper PMC9170038
